According to paper PMC5037986:

Target: recombinant mature human CD73 (soluble CD73, GPI anchor signal peptide replaced by a C-terminal 6x-histidine tag) (human)
Experiment: SEC-MALS

**Q.** With “recombinant mature human CD73 (soluble CD73, GPI anchor signal peptide replaced by a C-terminal 6x-histidine tag) (enzyme)” as the substance, how does the stoichiometry N read?
**A.** Its stoichiometry N is 2.
